The source of these data is paper PMC6555819, “Comprehensive study of nuclear receptor DNA binding provides a revised framework for understanding receptor specificity”.

B1: NRC3_random_hg19_462_o1 (dsDNA)
DNA 1: GCCTGCTGCTTTCCTGATTACTGTAGCATCAGGTACGCGATTGACAGCGTAGAATGAAGG
DNA 2: CCTTCATTCTACGCTGTCAATCGCGTACCTGATGCTACAGTAATCAGGAAAGCAGCAGGC
B2: NRC3_random_hg19_329_o1 (dsDNA)
DNA 1: GCAGGGATGAATAGATCGAAGTTACTGCCCATTCAAGCGATTGACAGCGTAGAATGAAGG
DNA 2: CCTTCATTCTACGCTGTCAATCGCTTGAATGGGCAGTAACTTCGATCTATTCATCCCTGC
B3: NRC3_wobSeed72_DR2_G16T_o1 (dsDNA)
DNA 1: GCTCGAGTAGGTTACTGGGGCATTCAGGGATGAAGAGCGATTGACAGCGTAGAATGAAGG
DNA 2: CCTTCATTCTACGCTGTCAATCGCTCTTCATCCCTGAATGCCCCAGTAACCTACTCGAGC
B4: NRC3_wobSeed72_DR2_G17C_o1 (dsDNA)
DNA 1: GCTCGAGTAGGTTACGCGGGCATTCAGGGATGAAGAGCGATTGACAGCGTAGAATGAAGG
DNA 2: CCTTCATTCTACGCTGTCAATCGCTCTTCATCCCTGAATGCCCGCGTAACCTACTCGAGC
B5: NRC3_random_hg19_56_o1 (dsDNA)
DNA 1: GCTGTGCCTTCTGCACAAGGTAGGTCTACATCCACTGCGATTGACAGCGTAGAATGAAGG
DNA 2: CCTTCATTCTACGCTGTCAATCGCAGTGGATGTAGACCTACCTTGTGCAGAAGGCACAGC
B6: NRC3_random_hg19_342_o1 (dsDNA)
DNA 1: GCATCGGGAGTGATGATAAGTAAGGCAAGCCCTGTTGCGATTGACAGCGTAGAATGAAGG
DNA 2: CCTTCATTCTACGCTGTCAATCGCAACAGGGCTTGCCTTACTTATCATCACTCCCGATGC
B7: NRC3_random_hg19_32_o1 (dsDNA)
DNA 1: GCTGTGTCAGACAGGCAAAGCACTTAAGATTTGTGAGCGATTGACAGCGTAGAATGAAGG
DNA 2: CCTTCATTCTACGCTGTCAATCGCTCACAAATCTTAAGTGCTTTGCCTGTCTGACACAGC
B8: NRC3_random_hg19_147_o1 (dsDNA)
DNA 1: GCCTCTTGCTCCCTATTGGTCTATTGCACTGCAGAGGCGATTGACAGCGTAGAATGAAGG
DNA 2: CCTTCATTCTACGCTGTCAATCGCCTCTGCAGTGCAATAGACCAATAGGGAGCAAGAGGC
B9: NRC3_wobSeed18_DR0_T12G_o1 (dsDNA)
DNA 1: GCGATACAGGGGCAAGGCCAGAGTACGCGTATTGATGCGATTGACAGCGTAGAATGAAGG
DNA 2: CCTTCATTCTACGCTGTCAATCGCATCAATACGCGTACTCTGGCCTTGCCCCTGTATCGC
B10: NRC3_random_hg19_208_o1 (dsDNA)
DNA 1: GCAAGAGAGAGACACAATGGCTAAAGAAGGAAGAGTGCGATTGACAGCGTAGAATGAAGG
DNA 2: CCTTCATTCTACGCTGTCAATCGCACTCTTCCTTCTTTAGCCATTGTGTCTCTCTCTTGC
B11: NRC3_wobSeed113_DR4_G20C_o1 (dsDNA)
DNA 1: GCATATGTAGGTTAGCTGGCGTCATTCAGACTAGGCGCGATTGACAGCGTAGAATGAAGG
DNA 2: CCTTCATTCTACGCTGTCAATCGCGCCTAGTCTGAATGACGCCAGCTAACCTACATATGC
B12: NRC3_random_hg19_42_o1 (dsDNA)
DNA 1: GCTTTGTGTGGGCTGTCATTGGATGCTCTGGTCATGGCGATTGACAGCGTAGAATGAAGG
DNA 2: CCTTCATTCTACGCTGTCAATCGCCATGACCAGAGCATCCAATGACAGCCCACACAAAGC
B13: NRC3_random_hg19_338_o1 (dsDNA)
DNA 1: GCACACAGAGAAACTCTTGCCAGTAGCAGTAGTACCGCGATTGACAGCGTAGAATGAAGG
DNA 2: CCTTCATTCTACGCTGTCAATCGCGGTACTACTGCTACTGGCAAGAGTTTCTCTGTGTGC
B14: NRC3_random_hg19_463_o1 (dsDNA)
DNA 1: GCCAGGGAGAGAGCCTTGCAAAGATGGAACAATCAGGCGATTGACAGCGTAGAATGAAGG
DNA 2: CCTTCATTCTACGCTGTCAATCGCCTGATTGTTCCATCTTTGCAAGGCTCTCTCCCTGGC
B15: NRC3_wobSeed66_DR2_A14G_o1 (dsDNA)
DNA 1: GCAATACAGGGTCGCTAGGCCAGAGTAGGTACGAATGCGATTGACAGCGTAGAATGAAGG
DNA 2: CCTTCATTCTACGCTGTCAATCGCATTCGTACCTACTCTGGCCTAGCGACCCTGTATTGC
B16: NRC3_wobSeed141_DR5_C6G_o1 (dsDNA)
DNA 1: GCAGTGAAAGTTCAGGACGAGGTAACGTAAAGCACGGCGATTGACAGCGTAGAATGAAGG
DNA 2: CCTTCATTCTACGCTGTCAATCGCCGTGCTTTACGTTACCTCGTCCTGAACTTTCACTGC
B17: NRC3_wobSeed28_DR1_A21T_o1 (dsDNA)
DNA 1: GCCCTACTGGGCCAAAGGTCTTTGATTCCAATGCTCGCGATTGACAGCGTAGAATGAAGG
DNA 2: CCTTCATTCTACGCTGTCAATCGCGAGCATTGGAATCAAAGACCTTTGGCCCAGTAGGGC
B18: NRC3_random_hg19_215_o1 (dsDNA)
DNA 1: GCTGTGGTCCCAAACACCTCAAGCATGACAATGCGTGCGATTGACAGCGTAGAATGAAGG
DNA 2: CCTTCATTCTACGCTGTCAATCGCACGCATTGTCATGCTTGAGGTGTTTGGGACCACAGC
B19: NRC3_random_hg19_157_o1 (dsDNA)
DNA 1: GCCCAAGATCTTGCCACTGCACTCCAGCCTGGATGAGCGATTGACAGCGTAGAATGAAGG
DNA 2: CCTTCATTCTACGCTGTCAATCGCTCATCCAGGCTGGAGTGCAGTGGCAAGATCTTGGGC
B20: NRC3_random_hg19_343_o1 (dsDNA)
DNA 1: GCCCTGGAGTGTCACTTAGCCACATTCTATTGGCCAGCGATTGACAGCGTAGAATGAAGG
DNA 2: CCTTCATTCTACGCTGTCAATCGCTGGCCAATAGAATGTGGCTAAGTGACACTCCAGGGC
B21: NRC3_wobSeed93_DR3_A14T_o1 (dsDNA)
DNA 1: GCAGTCAAAGTTCTTCTAGGTAACGTAAGATATGCTGCGATTGACAGCGTAGAATGAAGG
DNA 2: CCTTCATTCTACGCTGTCAATCGCAGCATATCTTACGTTACCTAGAAGAACTTTGACTGC
B22: NRC3_random_hg19_170_o1 (dsDNA)
DNA 1: GCCTTGCATTGTGGTTTGGATTTGCATTTCCCTAAAGCGATTGACAGCGTAGAATGAAGG
DNA 2: CCTTCATTCTACGCTGTCAATCGCTTTAGGGAAATGCAAATCCAAACCACAATGCAAGGC
B23: NRC3_random_hg19_246_o1 (dsDNA)
DNA 1: GCCTCCAGACTGCCTTCAGATTCAAGACGCAAAGGCGCGATTGACAGCGTAGAATGAAGG
DNA 2: CCTTCATTCTACGCTGTCAATCGCGCCTTTGCGTCTTGAATCTGAAGGCAGTCTGGAGGC

PXR:RXRa, sequence (O75469 whole entry, chain 1 of 2): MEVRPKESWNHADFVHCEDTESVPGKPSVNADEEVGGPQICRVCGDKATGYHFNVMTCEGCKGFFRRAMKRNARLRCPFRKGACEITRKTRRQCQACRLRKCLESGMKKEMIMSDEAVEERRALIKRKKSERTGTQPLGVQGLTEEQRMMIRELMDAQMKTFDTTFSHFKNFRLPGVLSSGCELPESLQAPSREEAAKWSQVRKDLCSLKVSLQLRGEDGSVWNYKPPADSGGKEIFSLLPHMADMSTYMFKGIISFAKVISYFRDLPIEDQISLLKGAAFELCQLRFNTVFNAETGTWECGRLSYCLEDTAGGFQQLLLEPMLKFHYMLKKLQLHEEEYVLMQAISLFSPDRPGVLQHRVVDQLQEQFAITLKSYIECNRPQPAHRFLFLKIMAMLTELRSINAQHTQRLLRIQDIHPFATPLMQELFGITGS
PXR:RXRa, sequence (P19793 whole entry, chain 2 of 2): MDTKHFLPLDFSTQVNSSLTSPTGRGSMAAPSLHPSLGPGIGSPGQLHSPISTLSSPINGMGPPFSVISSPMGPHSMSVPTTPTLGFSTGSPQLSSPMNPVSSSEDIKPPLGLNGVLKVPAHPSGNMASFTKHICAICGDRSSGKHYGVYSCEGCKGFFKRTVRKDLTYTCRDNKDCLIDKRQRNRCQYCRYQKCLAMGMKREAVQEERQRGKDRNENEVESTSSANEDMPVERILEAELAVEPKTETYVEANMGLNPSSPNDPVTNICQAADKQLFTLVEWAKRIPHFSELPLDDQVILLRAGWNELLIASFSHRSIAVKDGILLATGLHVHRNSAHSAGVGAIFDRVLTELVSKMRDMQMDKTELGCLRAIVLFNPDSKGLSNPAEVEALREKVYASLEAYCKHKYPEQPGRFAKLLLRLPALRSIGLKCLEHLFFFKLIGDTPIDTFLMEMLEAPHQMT
PPARa:RXRa, sequence (Q07869 whole entry, chain 1 of 2): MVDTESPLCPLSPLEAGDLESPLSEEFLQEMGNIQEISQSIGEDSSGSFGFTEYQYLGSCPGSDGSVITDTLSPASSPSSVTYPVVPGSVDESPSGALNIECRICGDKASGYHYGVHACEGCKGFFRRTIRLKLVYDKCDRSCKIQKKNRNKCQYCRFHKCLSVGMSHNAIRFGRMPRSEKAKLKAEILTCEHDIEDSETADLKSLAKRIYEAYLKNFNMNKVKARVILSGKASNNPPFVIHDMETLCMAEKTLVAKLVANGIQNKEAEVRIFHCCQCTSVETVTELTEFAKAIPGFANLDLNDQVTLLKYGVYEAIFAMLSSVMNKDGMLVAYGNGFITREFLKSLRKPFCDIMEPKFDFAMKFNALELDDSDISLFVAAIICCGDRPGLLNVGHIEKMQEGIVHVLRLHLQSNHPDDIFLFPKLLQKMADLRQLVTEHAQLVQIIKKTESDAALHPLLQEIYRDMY
PPARa:RXRa, sequence (P19793 whole entry, chain 2 of 2): as the sequence (P19793 whole entry, chain 2 of 2) above

One series concerns the target PXR:RXRa (Homo sapiens, UniProt O75469;P19793 full;full). As to the kind of experiment: no ligand; PBM; 270 nM : 90 nM RXRa; PBS pH 7.4, 2% milk, 0.02% Triton X-100, 1 mM DTT, BSA, 0.4 mg/ml salmon testes DNA. To be noted: tags: His kept;His cleaved; copies: 1;1; label: surface-attached array probe. The essentials:
(§1)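 Probes were double-stranded and carried 34-nt variable regions with direct-repeat seeds, single-nucleotide variants, half-site ablations and random human genomic background sequences, printed on custom Agilent 4×180K protein-binding microarrays. Arrays were incubated 1 h with ligand-free nuclear receptor dimers in PBS pH 7.4, 2% milk, 0.02% Triton X-100, 1 mM DTT, 0.2 mg/mL BSA and 0.4 mg/ml salmon testes DNA. Antibodies against each partner (one per run) detected binding, and scanned fluorescence was regression-normalized. Binding z-scores use the random background probes as reference.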
Consider B1, for which the binding signal is -0.18 PBM z-score against 500 random probes.
The same measure, in the same setting: with B2 the figure was 0.08 PBM z-score against 500 random probes; with B3, 0.31 PBM z-score against 500 random probes.
The same measure, in the same setting: then B4, with 0.24 PBM z-score against 500 random probes.
Same read-out and setting: with B5 the figure was -0.54 PBM z-score against 500 random probes; with B6, -0.7 PBM z-score against 500 random probes.
With B7, the binding signal was -0.5 PBM z-score against 500 random probes.
On to B8, for which the binding signal is 0.25 PBM z-score against 500 random probes.
Consider B9, for which the binding signal is -0.01 PBM z-score against 500 random probes.
As to B10, the binding signal is 0.26 PBM z-score against 500 random probes.
On the same count and under the same terms, with B11 the figure was -0.13 PBM z-score against 500 random probes.
The same measure, in the same setting: with B12 the figure was 0.44 PBM z-score against 500 random probes; with B13, -0.32 PBM z-score against 500 random probes.
Same read-out and setting: then B14, with -0.42 PBM z-score against 500 random probes.
On to B15, for which the binding signal was 0.28 PBM z-score against 500 random probes.
Same read-out and setting: with B16 the figure was 3 PBM z-score against 500 random probes; with B17, -0.05 PBM z-score against 500 random probes; with B18, -0.46 PBM z-score against 500 random probes.
B19: the binding signal was -0.24 PBM z-score against 500 random probes.
Still for that read-out and setting: then B20, with 0.14 PBM z-score against 500 random probes; and B21, with 0.13 PBM z-score against 500 random probes; and B22, with 0.34 PBM z-score against 500 random probes.
Same read-out and setting: then B23, with -0.41 PBM z-score against 500 random probes.

A further series concerns the target PPARa:RXRa (Homo sapiens, UniProt Q07869;P19793 full;full). Described as above. To be noted: tags: GST kept;His cleaved; copies: 1;1; label: surface-attached array probe. The gist of the method: as §1
With B8, the binding signal was 0.48 PBM z-score against 500 random probes.
Turning to B16, the binding signal is 3.27 PBM z-score against 500 random probes.
